Legend:
Test in all cases: pull-down binding Z-score (relative to library population); higher = stronger binding
[1] = tested on: TO-3-N3 (biotin conjugate); settings: RNA library: Library-2
Summary of the method: (§1)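 The RNA library, end-labelled with Cy5 or Cy3, was heat-folded in phosphate/NaCl/KCl buffer, and 1 μg was incubated at 25 °C for 60 min with streptavidin beads carrying 100 pmol of biotin-conjugated small molecule. Hot SDS released the bound RNA, which was then hybridised to a DNA barcode microarray for 20 h at 55.5 °C. For scoring binding, signal from beads alone was subtracted, replicate barcoded probes were averaged after discarding the highest and lowest, and each value was turned into a Z-score from the library mean and standard deviation.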

[2] = tested on: TO-3-N3-2 (biotin conjugate); settings: RNA library: Library-2
Summary of the method: as §1

[3] = tested on: G-clamp-N3 (biotin conjugate); settings: RNA library: Library-1 (pre-miRNA loops + repeats)
Summary of the method: as §1

TO-N3 (biotin conjugate) = settings: RNA library: Library-2
Summary of the method: as §1

[4] = tested on: TO-N3-2 (biotin conjugate); settings: RNA library: Library-2
Summary of the method: as §1

| Sequence | pull-down binding Z-score [1] | pull-down binding Z-score [2] | pull-down binding Z-score [3] | pull-down binding Z-score (TO-N3 (biotin conjugate)) | pull-down binding Z-score [4] |
| --- | --- | --- | --- | --- | --- |
| CUCAGCCUGGAAAAAGCUGAG [hsa-mir-4765] | -0.454 | -0.575 | 0.49 | -0.672 | -0.646 |
| CUCAGGAAUUGGAUAAGCUUUUCUGAG [hsa-mir-5194] | -0.212 | -0.272 | 0.541 | -0.399 | -0.323 |
| CUCAGGACAGCGGGUGUCAGCUUGCCUGAC [hsa-mir-6859-1_6859-3_6859-2_6859-4] | 0.665 | 0.241 | -0.377 | 1.12 | 1.4 |
| CUCAUGAUAUGUUUGCCCCAUCAGCGUGUCACGAG [hsa-mir-3616] | -0.104 | -0.139 | 0.251 | -0.0894 | 0.199 |
| CUCAUGUAAACUAAAACAUGAU [hsa-mir-508] | 0.0647 | -0.244 | -1.91 | -0.229 | -0.891 |
| CUCAUUGUUGAAUGGAAUGAGAU [hsa-mir-3145] | -0.527 | -0.319 | 2.58 | -0.571 | 0.348 |
| CUCCGGGUUGGGG [hsa-mir-1469] | -0.552 | -0.476 | 0.177 | -0.718 | -0.557 |
| CUCCUAUUGAAAAUGAACAGGAG [hsa-mir-873] | -0.0676 | -0.299 | -0.315 | -0.285 | -0.875 |
| CUCCUCCGCUGCCGCCGGGAGAG [hsa-mir-4785] | -0.584 | -0.327 | 0.0193 | -0.794 | 0.0312 |
| CUCGCUGGGAGGUGUGCUAUCGUCUUCCCCGGGAG [hsa-mir-3689d-1] | -0.0907 | -0.13 | 0.293 | 0.154 | 0.734 |
| CUCGCUGGGAGGUGUGCUAUCGUCUUCCCUGGGAG [hsa-mir-3689d-2] | 0.157 | -0.246 | -0.351 | 0.338 | 0.541 |
| CUCGGCCAUCCUCCGUCUGCCCAG [hsa-mir-935] | -0.0566 | 0.13 | -1.08 | 0.473 | 1.16 |
| CUCGGGAGGCUGAG [hsa-mir-4419a] | -0.569 | -0.459 | 1.91 | -0.51 | 0.147 |
| CUCGGGUGGAUAAGUCUGAUCUGAG [hsa-mir-3663] | -0.724 | -0.631 | 1.2 | -0.554 | 0.26 |
| CUCGUCUCUACAAAAAAUUGAGACAGG [hsa-mir-4512] | 0.00896 | -0.15 | -0.338 | -0.152 | -0.632 |
| CUCUAGACUCUAUUAUAGUUUCCUGAG [hsa-mir-558] | -0.335 | -0.582 | -1.03 | -0.751 | -0.545 |
| CUCUCCUCCAGCUCAGCUGGUCAGGAGAG [hsa-mir-3160-1] | 1.09 | -0.0211 | -0.259 | 0.959 | -0.0869 |
| CUCUCCUGACCAGCUGAGCUGGAGGAGAG [hsa-mir-3160-2] | -0.0412 | -0.397 | 1.35 | -0.48 | -1.08 |
| CUCUCGUGUCCACUAGCAGGCAGGUUUUCUGACACAGG [hsa-mir-604] | -0.343 | 0.313 | 0.743 | -0.0789 | 0.566 |

| Sequence | pull-down binding Z-score [1] | pull-down binding Z-score [2] | pull-down binding Z-score [3] | pull-down binding Z-score (TO-N3 (biotin conjugate)) | pull-down binding Z-score [4] |
| --- | --- | --- | --- | --- | --- |
| CUCUCUGUUGCUCUGAAGGAG [hsa-mir-346] | -0.271 | -0.318 | 1.39 | -0.183 | 0.295 |
| CUCUGAUGUAAUUAGGU [hsa-mir-563] | -0.504 | -0.321 | -1.2 | -0.642 | -0.397 |
| CUCUGCUGUGUAAAUAGUUCUGAGUAGU [hsa-mir-454] | -0.17 | 0.0557 | -0.424 | 0.186 | 0.574 |
| CUCUGGUCAGUUGGGAGUCUGAG [hsa-mir-143] | -0.346 | -0.014 | 0.448 | -0.0514 | 0.949 |
| CUCUGGUCUAUAAUGGGUUAAAUAGUAGAG [hsa-mir-609] | -0.334 | 0.234 | 0.305 | -0.191 | 0.131 |
| CUCUGUAGUUUUCUUAUAGUG [hsa-mir-644a] | -0.635 | -0.532 | -0.255 | -0.566 | -0.669 |
| CUCUUGAUAGCAGACAU [hsa-mir-4775] | -0.326 | 0.14 | -0.839 | -0.14 | 0.291 |
| CUGAAAAUACAAAAUGGAAAAUUCCAG [hsa-mir-4494] | -0.0909 | 0.256 | -1.38 | -0.0822 | -0.365 |
| CUGAACCCGUGGGUGAGGAGUGCAG [hsa-mir-4690] | 0.367 | 0.0142 | 0.824 | 0.515 | 0.925 |
| CUGAACUGGGCUGGGUUGAGCUGGGCUGGGCUGAGUUGAG [hsa-mir-4538] | 4.18 | 5.75 | 1.51 | 3.25 | 2.71 |
| CUGACCCGUUGUCAGACCUGGAAAAAGGGCCGGCUGUGGGCAGGGAGG [hsa-mir-4761] | 4.77 | 5.16 | 1.11 | 4.2 | 3.86 |
| CUGAGAGGUUUACAUUUCUC [hsa-mir-128-1] | -0.664 | -0.672 | -1.07 | -0.648 | -0.0343 |
| CUGAGAGUGUCAUGGUGGAGCCUCCG [hsa-mir-4784] | 0.121 | -0.0723 | 0.795 | 0.735 | 1.55 |
| CUGAGCGGCUCCAUCCCCCGGCCUGCUCAU [hsa-mir-6729] | 0.85 | 0.224 | -1.11 | 1.14 | 1.81 |
| CUGAGCUGGGUACUGCCUGUUCAG [hsa-mir-589] | 0.697 | 0.311 | 0.263 | 0.518 | 0.0632 |
| CUGAGGAAUUUGCUGGGAUAUGUCAG [hsa-mir-584] | 0.181 | 0.168 | 0.609 | 0.66 | 0.799 |
| CUGAGGACAUGCAGUUUCAG [hsa-mir-7702] | -0.471 | -0.579 | 0.946 | -0.651 | -0.304 |
| CUGAGGACUGAGGCUCACCUUG [hsa-mir-6772] | -0.057 | 0.0747 | 0.0792 | 0.412 | 0.813 |
